Among the data in the Human Domainome abundance scans (Beltran et al. 2025) are abundance fitness values, retold here.

± gives the uncertainty stated by the source.

This data set in a line: abundance fitness (aPCA) (normalised: wild type 0, dead -1); higher = more abundant; growth selection in yeast, the domain comes from the species named. Conditions: Homo sapiens.
“Lipoamide acyltransferase component of branched-chain alpha-keto acid dehydrogenase complex, mitochondrial Y208A, P11182” gave an abundance fitness of 0.018 ± 0.036.

“Lipoamide acyltransferase component of branched-chain alpha-keto acid dehydrogenase complex, mitochondrial Y208C, P11182” had an abundance fitness of 0.037 ± 0.092.

As for “Lipoamide acyltransferase component of branched-chain alpha-keto acid dehydrogenase complex, mitochondrial Y208D, P11182”, the abundance fitness was -0.213 ± 0.06.

In the case of “Lipoamide acyltransferase component of branched-chain alpha-keto acid dehydrogenase complex, mitochondrial Y208E, P11182”, the abundance fitness was -0.032 ± 0.041.

Take “Lipoamide acyltransferase component of branched-chain alpha-keto acid dehydrogenase complex, mitochondrial Y208F, P11182”: the abundance fitness was -0.061 ± 0.084.

“Lipoamide acyltransferase component of branched-chain alpha-keto acid dehydrogenase complex, mitochondrial Y208G, P11182”: the abundance fitness was -0.172 ± 0.036.

With “Lipoamide acyltransferase component of branched-chain alpha-keto acid dehydrogenase complex, mitochondrial Y208H, P11182”, the abundance fitness is -0.075 ± 0.097.

In the case of “Lipoamide acyltransferase component of branched-chain alpha-keto acid dehydrogenase complex, mitochondrial Y208I, P11182”, the abundance fitness is -0.072 ± 0.063.

For “Lipoamide acyltransferase component of branched-chain alpha-keto acid dehydrogenase complex, mitochondrial Y208K, P11182”, the abundance fitness is 0.051 ± 0.06.

On to “Lipoamide acyltransferase component of branched-chain alpha-keto acid dehydrogenase complex, mitochondrial Y208L, P11182”, for which the abundance fitness is -0.032 ± 0.047.

Take “Lipoamide acyltransferase component of branched-chain alpha-keto acid dehydrogenase complex, mitochondrial Y208M, P11182”: the abundance fitness amounted to 0.012 ± 0.052.

As for “Lipoamide acyltransferase component of branched-chain alpha-keto acid dehydrogenase complex, mitochondrial Y208N, P11182”, the abundance fitness is -0.162 ± 0.061.

As to “Lipoamide acyltransferase component of branched-chain alpha-keto acid dehydrogenase complex, mitochondrial Y208P, P11182”, the abundance fitness is -0.283 ± 0.044.

With “Lipoamide acyltransferase component of branched-chain alpha-keto acid dehydrogenase complex, mitochondrial Y208S, P11182”, the abundance fitness was -0.095 ± 0.041.

On to “Lipoamide acyltransferase component of branched-chain alpha-keto acid dehydrogenase complex, mitochondrial Y208T, P11182”, for which the abundance fitness is -0.073 ± 0.074.

With “Lipoamide acyltransferase component of branched-chain alpha-keto acid dehydrogenase complex, mitochondrial Y208V, P11182”, the abundance fitness was -0.02 ± 0.039.

Consider “Lipoamide acyltransferase component of branched-chain alpha-keto acid dehydrogenase complex, mitochondrial Y208W, P11182”, for which the abundance fitness is -0.186 ± 0.05.

Substance Nanos homolog 2 D85A, P60321 registered an abundance fitness of 0.03 ± 0.11.

Turning to Nanos homolog 2 D106A, P60321, the abundance fitness was -0.206 ± 0.098.

With Nanos homolog 2 H74A, P60321, the abundance fitness is -0.238 ± 0.12.

Consider Nanos homolog 2 H95Q, P60321, for which the abundance fitness was -0.092 ± 0.071.

Regarding Nanos homolog 2 I92Y, P60321, the abundance fitness is -0.308 ± 0.14.

Consider Nanos homolog 2 K67R, P60321, for which the abundance fitness was -0.197 ± 0.05.

In the case of Nanos homolog 2 K82R, P60321, the abundance fitness was -0.243 ± 0.069.

For the substance Nanos homolog 2 K112R, P60321, the abundance fitness is -0.171 ± 0.096.

As to Nanos homolog 2 L111K, P60321, the abundance fitness was found to be 0.292 ± 0.074.

As for Nanos homolog 2 Q80C, P60321, the abundance fitness turned out to be 0.191 ± 0.11.

Consider Nanos homolog 2 Q107R, P60321, for which the abundance fitness was -0.016 ± 0.12.

In turn, Nanos homolog 2 R73E, P60321 returned an abundance fitness of 0.102 ± 0.067.

Regarding Nanos homolog 2 S77R, P60321, the abundance fitness was -0.003 ± 0.069.

Consider Nanos homolog 2 V87G, P60321, for which the abundance fitness is -0.082 ± 0.088.

In the case of Nanos homolog 2 V89S, P60321, the abundance fitness amounted to 0.094 ± 0.066.

Nanos homolog 2 V97I, P60321 gave an abundance fitness of 0.008 ± 0.12.

Take Nanos homolog 2 V100L, P60321: the abundance fitness was -0.123 ± 0.077.

For the substance Nanos homolog 2 Y76F, P60321, the abundance fitness is -0.14 ± 0.13.

For the substance Nanos homolog 2 Y113H, P60321, the abundance fitness is 0.057 ± 0.11.
